According to patent publication US10689452 (UNIVERSIT T STUTTGART, dated 2020):

T1: human TNFR1 on cells (HT1080, HeLa, Kym-1) (human, UniProt P19438 30-455)
T1 sequence (looked up): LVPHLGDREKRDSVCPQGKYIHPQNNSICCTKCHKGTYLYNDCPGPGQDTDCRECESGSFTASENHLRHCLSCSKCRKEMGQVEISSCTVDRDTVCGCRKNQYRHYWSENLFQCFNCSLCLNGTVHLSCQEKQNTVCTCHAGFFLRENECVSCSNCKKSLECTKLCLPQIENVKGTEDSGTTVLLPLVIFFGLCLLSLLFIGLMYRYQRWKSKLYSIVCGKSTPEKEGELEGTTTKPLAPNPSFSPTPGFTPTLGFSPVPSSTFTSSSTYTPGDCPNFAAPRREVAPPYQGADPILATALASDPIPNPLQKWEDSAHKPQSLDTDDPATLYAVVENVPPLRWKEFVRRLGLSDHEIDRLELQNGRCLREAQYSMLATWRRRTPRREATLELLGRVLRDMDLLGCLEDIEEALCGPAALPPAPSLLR

T2: human TNFR1-Fc fusion protein (human, UniProt P19438 29-211)
T2 construct: range 29-211; Made in stably transfected HEK293 cells; coated on ELISA plates or immobilised on QCM chips; also called huTNFR1-Fc; human TNFR-Fc; not shown: Fc part from vector pSecTagL1-Fc
T2 sequence (looked up): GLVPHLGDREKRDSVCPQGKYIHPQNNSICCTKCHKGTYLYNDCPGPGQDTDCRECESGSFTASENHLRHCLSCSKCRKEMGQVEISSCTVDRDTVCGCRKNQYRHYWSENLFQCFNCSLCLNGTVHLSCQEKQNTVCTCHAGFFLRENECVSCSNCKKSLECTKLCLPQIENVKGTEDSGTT

B1: IgG13.7 (antibody, V domains shown)
VH: HVQLVQSGAEVKKPGSSVKVSCKASGYTFTDFYINWVRQAPGQGLEWIGEIVPSQGEAKYNDKFKARVTITADKSTSTAYMELSSLRSEDTAVYYCARWDFLDYWGQGTTVTVSS
VL: DVQMTQSPSSLSASVGDRVTITCRSSQSLLHSNGNTYLHWYQQKPGKAPKLLIYTVSNRFSGVPSRFSGSGSGTDFTLTISSLQPEDFATYYCSQSTHVPYTFGGGTKVEIK
notes: Made transiently in HEK293T cells; also called IgG-FRK13.7
B2: Fab13.7 (Fab, V domains shown)
VH: B1 VH
VL: DVQMTQSPSSLSASVGDRVTITCRSSQSLLHSNGNTYLHWYQQKPGKAPKLLIYTVSNRFSGVPSRFSGSGSGTDFTLTISSLQPEDFATYYCSQSTHVPYTFGGGTKVEIKR
notes: also called Fab-FRK13.7; Fab3.7

How the values were obtained:
[1] = molecular target: T1, human TNFR1 on cells (HT1080, HeLa, …); assay: cell-based or functional assay
[2] = molecular target: T2, human TNFR1-Fc fusion protein; assay: QCM, human TNFR1-Fc, high receptor density (184 Hz), OneToOne analysis, kon2
Method: (§1) Real-time binding dynamics in protein-protein interactions were determined by quartz crystal microbalance measurements (A-100 C-Fast or Cell-200 C-Fast, Attana, Stockholm, Sweden). One of the binding partners (ligand, e.g. TNFR1-Fc) was chemically immobilized on a carboxyl sensor chip according to the manufacturer's protocol at different densities (nearly 200 Hz in the case of saturating conditions to confirm previously published results and 50-100 Hz, in particular at about 50 Hz, to establish conditions of lower receptor density, better resembling the situation on the cellular surface). Binding experiments were performed with samples (analyte) diluted in PBST (PBS, 0.1% Tween 20) at pH 7.4 with a flow rate of 25 µl/min at 37° C. The chip was regenerated with 25 µl 5 mM NaOH or 20 mM glycine, pH 2.0. Every third measurement, an injection of running buffer was measured which was subtracted from the binding curve.

[3] = molecular target: T2, human TNFR1-Fc fusion protein; assay: QCM, human TNFR1-Fc, high receptor density (184 Hz), OneToOne analysis, koff2
Method: as §1

[4] = molecular target: T2, human TNFR1-Fc fusion protein; assay: QCM
[5] = molecular target: T2, human TNFR1-Fc fusion protein; assay: ELISA, human TNFR1-Fc
[6] = molecular target: T2, human TNFR1-Fc fusion protein; assay: QCM, human TNFR1-Fc, high receptor density (184 Hz), OneToOne analysis, KD2
Method: as §1

[7] = molecular target: T2, human TNFR1-Fc fusion protein; assay: QCM, moderate receptor density (86 Hz)
Method: as §1, with “curve. Data were collected using the software provided by Attana for the particular device and analyzed by Attaché Office Evaluation software (Attana, Stockholm, Sweden) and TraceDrawe (ridgview instruments, Vange, Sweden).” for “curve.”

[8] = molecular target: T1, human TNFR1 on cells (HT1080, HeLa, …); assay: cell-based or functional assay; remark: listed apart in the source
[9] = molecular target: T2, human TNFR1-Fc fusion protein; assay: QCM, human TNFR1-Fc, moderate receptor density (86 Hz), koff1
Method: as §1, with “curve. Data were collected using the software provided by Attana for the particular device and analyzed by Attaché Office Evaluation software (Attana, Stockholm, Sweden) and TraceDrawe (ridgview instruments, Vange, Sweden).” for “curve.”

[10] = molecular target: T2, human TNFR1-Fc fusion protein; assay: ELISA on coated human TNFR1-Fc, reference curve next to Fv13.7-Fckih0DS
Method: (§2) Microtiter plates were coated with 100 µl of the indicated protein (1 µg/ml in PBS, see Table 3.3) and incubated at 4° C. over night. The residual binding sites were blocked with 2% MPBS (skim milk in PBS, 200 µl per well) at room temperature for 2 hours and subsequently washed twice with PBS. 100 µl of the samples diluted in 2% MPBS were incubated at room temperature for 1 hour prior to the last incubation step with 100 µl of the HRP conjugated detection antibodies in 2% MPBS. In the case of competition experiments, both analyzed protein samples were prepared individually (either titrated or diluted to a single concentration) and mixed before they were applied to the plate. Bound protein was detected with 100 µl TMB substrate solution, the HRP-reaction was stopped by the addition of 50 µl 1 M H2SO4 and the absorption at the wavelength of 450 nm was measured using the Infinite microtiter plate reader (TECAN, Maennedorf, Switzerland). Between each incubation step and in advance of the detection, the plates were washed three times with PBST and twice with PBS.

[11] = molecular target: T2, human TNFR1-Fc fusion protein; assay: ELISA on coated human TNFR1-Fc, reference curve next to Fab13.7PEG
Method: as §2

[12] = molecular target: T2, human TNFR1-Fc fusion protein; assay: QCM, human TNFR1-Fc, moderate receptor density (86 Hz), KD1
Method: as §1, with “curve. Data were collected using the software provided by Attana for the particular device and analyzed by Attaché Office Evaluation software (Attana, Stockholm, Sweden) and TraceDrawe (ridgview instruments, Vange, Sweden).” for “curve.”

[13] = molecular target: T2, human TNFR1-Fc fusion protein; assay: QCM, human TNFR1-Fc, moderate receptor density (86 Hz), kon1
Method: as §1, with “curve. Data were collected using the software provided by Attana for the particular device and analyzed by Attaché Office Evaluation software (Attana, Stockholm, Sweden) and TraceDrawe (ridgview instruments, Vange, Sweden).” for “curve.”

| Binder | IL-6 release (pg/ml), HeLa cells [1] [pg/mL] | IL-8 release (pg/ml), HT1080 cells [1] [pg/mL] | kon [2] [M⁻¹ s⁻¹] | koff [3] [s⁻¹] | fold improvement of KD compared with ATROSAB (bivalent binding) [4] [fold] | EC50 [5] [nM] | Kd [6] [nM] | IC50, Cytotox (nM); inhibition of Kym-1 cell death by 0.01 nM TNF [1] [nM] | IC50, IL-6 (nM); inhibition of the response of HeLa cells to 0.1 nM TNF [1] [nM] | IC50, IL-8 (nM); inhibition of the response of HT1080 cells to 0.1 nM TNF [1] [nM] | fold stronger affinity than FabATR [7] [fold] | IC50 (read off the curve), inhibition of the interleukin release induced by 0.1 nM TNF (axis: IL-6 release [%]) [8] [nM] | koff [9] [s⁻¹] | EC50 (read off the curve) [10] [nM] | EC50 (read off the curve) [11] [nM] | Kd [12] [nM] | kon [13] [M⁻¹ s⁻¹] |
| --- | --- | --- | --- | --- | --- | --- | --- | --- | --- | --- | --- | --- | --- | --- | --- | --- | --- |
| B1 | 1450 | 4230 | 535000 | 5.92e-05 | 3.5 | 0.76 | 0.11 |  |  |  |  |  |  |  |  |  |  |
| B2 | 101 | 138 |  |  |  | 1.4 |  | 4.7 | 31 | 19 | 19 | ~20 | 0.000732 | ~0.6 | ~2 | 1.6 | 470000 |
